The labels stand for the following.
B1: GpH7-A5/GpH7-B3 variant S267_06M/GpL16-k0 (antibody, human IgG1, kappa)
heavy 1: not shown
heavy 2: not shown
light: DIVMTQSPLSLPVTPGEPASISCQASESLVHSNRNTYLHWYLQKPGQSPQLLIYKVSNRFSGVPDRFSGSGSGTDFTLKISRVEAEDVGVYYCSQNTHVPPTFGQGTKVEIERTVAAPSVFIFPPSDEQLKSGTASVVCLLNNFYPREAKVQWKVDNALQSGNSQESVTEQDSKDSTYSLSSTLTLSKADYEKHKVYACEVTHQGLSSPVTKSFNRGEC
notes: heterodimerized antibody, mutation in one H chain only; also called S267_06M He Ab
B2: GpH7-A5/GpH7-B3 variant K334_13S/GpL16-k0 (antibody, human IgG1, kappa)
heavy 1: not shown
heavy 2: not shown
light: DIVMTQSPLSLPVTPGEPASISCQASESLVHSNRNTYLHWYLQKPGQSPQLLIYKVSNRFSGVPDRFSGSGSGTDFTLKISRVEAEDVGVYYCSQNTHVPPTFGQGTKVEIERTVAAPSVFIFPPSDEQLKSGTASVVCLLNNFYPREAKVQWKVDNALQSGNSQESVTEQDSKDSTYSLSSTLTLSKADYEKHKVYACEVTHQGLSSPVTKSFNRGEC
notes: heterodimerized antibody, mutation in one H chain only; also called K334_13S He Ab
B3: GpH7-A5/GpH7-B3 variant Q295_12R/GpL16-k0 (antibody, human IgG1, kappa)
heavy 1: not shown
heavy 2: not shown
light: DIVMTQSPLSLPVTPGEPASISCQASESLVHSNRNTYLHWYLQKPGQSPQLLIYKVSNRFSGVPDRFSGSGSGTDFTLKISRVEAEDVGVYYCSQNTHVPPTFGQGTKVEIERTVAAPSVFIFPPSDEQLKSGTASVVCLLNNFYPREAKVQWKVDNALQSGNSQESVTEQDSKDSTYSLSSTLTLSKADYEKHKVYACEVTHQGLSSPVTKSFNRGEC
notes: heterodimerized antibody, mutation in one H chain only; also called Q295_12R He Ab
B4: GpH7-A5/GpH7-B3 variant S239_10E/GpL16-k0 (antibody, human IgG1, kappa)
heavy 1: not shown
heavy 2: not shown
light: DIVMTQSPLSLPVTPGEPASISCQASESLVHSNRNTYLHWYLQKPGQSPQLLIYKVSNRFSGVPDRFSGSGSGTDFTLKISRVEAEDVGVYYCSQNTHVPPTFGQGTKVEIERTVAAPSVFIFPPSDEQLKSGTASVVCLLNNFYPREAKVQWKVDNALQSGNSQESVTEQDSKDSTYSLSSTLTLSKADYEKHKVYACEVTHQGLSSPVTKSFNRGEC
notes: heterodimerized antibody, mutation in one H chain only; also called S239_10E He Ab
B5: GpH7-A5/GpH7-B3 variant S267_10E/GpL16-k0 (antibody, human IgG1, kappa)
heavy 1: not shown
heavy 2: not shown
light: DIVMTQSPLSLPVTPGEPASISCQASESLVHSNRNTYLHWYLQKPGQSPQLLIYKVSNRFSGVPDRFSGSGSGTDFTLKISRVEAEDVGVYYCSQNTHVPPTFGQGTKVEIERTVAAPSVFIFPPSDEQLKSGTASVVCLLNNFYPREAKVQWKVDNALQSGNSQESVTEQDSKDSTYSLSSTLTLSKADYEKHKVYACEVTHQGLSSPVTKSFNRGEC
notes: heterodimerized antibody, mutation in one H chain only; also called S267_10E He Ab
B6: GpH7-A5/GpH7-B3 variant K334_19Q/GpL16-k0 (antibody, human IgG1, kappa)
heavy 1: not shown
heavy 2: not shown
light: DIVMTQSPLSLPVTPGEPASISCQASESLVHSNRNTYLHWYLQKPGQSPQLLIYKVSNRFSGVPDRFSGSGSGTDFTLKISRVEAEDVGVYYCSQNTHVPPTFGQGTKVEIERTVAAPSVFIFPPSDEQLKSGTASVVCLLNNFYPREAKVQWKVDNALQSGNSQESVTEQDSKDSTYSLSSTLTLSKADYEKHKVYACEVTHQGLSSPVTKSFNRGEC
notes: heterodimerized antibody, mutation in one H chain only; also called K334_19Q He Ab
B7: GpH7-A5/GpH7-B3 variant P271_10E/GpL16-k0 (antibody, human IgG1, kappa)
heavy 1: not shown
heavy 2: not shown
light: DIVMTQSPLSLPVTPGEPASISCQASESLVHSNRNTYLHWYLQKPGQSPQLLIYKVSNRFSGVPDRFSGSGSGTDFTLKISRVEAEDVGVYYCSQNTHVPPTFGQGTKVEIERTVAAPSVFIFPPSDEQLKSGTASVVCLLNNFYPREAKVQWKVDNALQSGNSQESVTEQDSKDSTYSLSSTLTLSKADYEKHKVYACEVTHQGLSSPVTKSFNRGEC
notes: heterodimerized antibody, mutation in one H chain only; also called P271_10E He Ab
B8: GpH7-A5/GpH7-B3 variant P271_19Q/GpL16-k0 (antibody, human IgG1, kappa)
heavy 1: not shown
heavy 2: not shown
light: DIVMTQSPLSLPVTPGEPASISCQASESLVHSNRNTYLHWYLQKPGQSPQLLIYKVSNRFSGVPDRFSGSGSGTDFTLKISRVEAEDVGVYYCSQNTHVPPTFGQGTKVEIERTVAAPSVFIFPPSDEQLKSGTASVVCLLNNFYPREAKVQWKVDNALQSGNSQESVTEQDSKDSTYSLSSTLTLSKADYEKHKVYACEVTHQGLSSPVTKSFNRGEC
notes: heterodimerized antibody, mutation in one H chain only; also called P271_19Q He Ab
B9: GpH7-A5/GpH7-B3 variant K334_18N/GpL16-k0 (antibody, human IgG1, kappa)
heavy 1: not shown
heavy 2: not shown
light: DIVMTQSPLSLPVTPGEPASISCQASESLVHSNRNTYLHWYLQKPGQSPQLLIYKVSNRFSGVPDRFSGSGSGTDFTLKISRVEAEDVGVYYCSQNTHVPPTFGQGTKVEIERTVAAPSVFIFPPSDEQLKSGTASVVCLLNNFYPREAKVQWKVDNALQSGNSQESVTEQDSKDSTYSLSSTLTLSKADYEKHKVYACEVTHQGLSSPVTKSFNRGEC
notes: heterodimerized antibody, mutation in one H chain only; also called K334_18N He Ab
B10: GpH7-A5/GpH7-B3 variant L328_15Y/GpL16-k0 (antibody, human IgG1, kappa)
heavy 1: not shown
heavy 2: not shown
light: DIVMTQSPLSLPVTPGEPASISCQASESLVHSNRNTYLHWYLQKPGQSPQLLIYKVSNRFSGVPDRFSGSGSGTDFTLKISRVEAEDVGVYYCSQNTHVPPTFGQGTKVEIERTVAAPSVFIFPPSDEQLKSGTASVVCLLNNFYPREAKVQWKVDNALQSGNSQESVTEQDSKDSTYSLSSTLTLSKADYEKHKVYACEVTHQGLSSPVTKSFNRGEC
notes: heterodimerized antibody, mutation in one H chain only; also called L328_15Y He Ab
B11: GpH7-A5/GpH7-B3 variant S298_09D/GpL16-k0 (antibody, human IgG1, kappa)
heavy 1: not shown
heavy 2: not shown
light: DIVMTQSPLSLPVTPGEPASISCQASESLVHSNRNTYLHWYLQKPGQSPQLLIYKVSNRFSGVPDRFSGSGSGTDFTLKISRVEAEDVGVYYCSQNTHVPPTFGQGTKVEIERTVAAPSVFIFPPSDEQLKSGTASVVCLLNNFYPREAKVQWKVDNALQSGNSQESVTEQDSKDSTYSLSSTLTLSKADYEKHKVYACEVTHQGLSSPVTKSFNRGEC
notes: heterodimerized antibody, mutation in one H chain only; also called S298_09D He Ab

T1 sequence (P12314 16-292): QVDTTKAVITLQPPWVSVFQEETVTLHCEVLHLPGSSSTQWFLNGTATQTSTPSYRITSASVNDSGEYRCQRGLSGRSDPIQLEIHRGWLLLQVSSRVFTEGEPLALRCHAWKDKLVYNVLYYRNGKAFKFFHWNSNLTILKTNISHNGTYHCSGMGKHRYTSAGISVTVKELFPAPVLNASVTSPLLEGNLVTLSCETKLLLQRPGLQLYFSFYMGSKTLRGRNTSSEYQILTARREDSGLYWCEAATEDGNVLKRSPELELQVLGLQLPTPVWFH

This assay has as its target T1, FcγRIa extracellular domain with C-terminal His tag (human, UniProt P12314 16-292).
T1 construct: extracellular domain; soluble analyte in Biacore; also called FcgRI; CD64
The experiment in a line: SPR (Biacore), relative FcγRIa binding, GpH7-A5/GpH7-B3/GpL16-k0 (HeCon Ab) = 100. On the technique in general: In SPR one partner is held on a chip, and binding of the other changes the refractive index at the surface.
Take B1: the He/Con_1a was 106 % of control.

With B2, the He/Con_1a was 105 % of control.

With B3, the He/Con_1a was 100 % of control.

Regarding B4, the He/Con_1a was 105 % of control.

B5: the He/Con_1a is 106 % of control.

On to B6, for which the He/Con_1a was 106 % of control.

Regarding B7, the He/Con_1a was 103 % of control.

For the molecule B8, the He/Con_1a is 103 % of control.

As for B9, the He/Con_1a was 105 % of control.

As for B10, the He/Con_1a was 102 % of control.

As for B11, the He/Con_1a was 106 % of control.

The record behind these values is patent US20180155451A1 (published 2018).
